Test results from patent US20260034234A1 (AGENSYS, published 2026).

Assays:
[1] = molecular target: T1, Rat 191P4D12 (on PC3 cells) (rat, UniProt D3ZET1 31-509); assay: FACS saturation binding on PC3-rat-191P4D12 cells
T1 construct: whole, on cells; also called PC3-rat-191P4D12; Rat ortholog
T1 sequence: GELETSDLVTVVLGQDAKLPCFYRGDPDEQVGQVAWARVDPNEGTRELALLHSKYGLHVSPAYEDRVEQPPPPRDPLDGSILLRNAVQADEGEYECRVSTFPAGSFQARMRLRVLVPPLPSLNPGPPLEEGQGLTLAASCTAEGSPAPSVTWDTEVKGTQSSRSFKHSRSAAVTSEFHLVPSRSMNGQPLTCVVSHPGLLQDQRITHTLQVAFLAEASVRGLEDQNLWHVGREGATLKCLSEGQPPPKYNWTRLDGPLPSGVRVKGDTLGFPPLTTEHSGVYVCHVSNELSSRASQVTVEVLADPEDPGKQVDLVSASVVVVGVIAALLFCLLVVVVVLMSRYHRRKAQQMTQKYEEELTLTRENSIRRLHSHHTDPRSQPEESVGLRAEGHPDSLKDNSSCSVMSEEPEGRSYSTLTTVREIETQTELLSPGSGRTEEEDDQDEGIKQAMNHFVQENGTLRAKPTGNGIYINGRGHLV
Method: (§1) Ha22-2(2,4)6.1vcMMAE was tested for its binding affinity to 191P4D12 expressed on the surface of PC3-human-191P4D12, PC3-Cynomolgus-191P4D12, and PC3-rat-191P4D12 cells respectively. Briefly, eleven (11) dilutions of Ha22-2(2,4)6.1vcMMAE were incubated with each of the cell types (50,000 cells per well) overnight at 4° C. at a final concentration of 160 nM to 0.011 nM. At the end of the incubation, cells are washed and incubated with anti-hIgG-PE detection antibody for 45 min at 4° C. After washing the unbound detection antibodies, the cells are analyzed by FACS. MFI values were entered into Graphpad Prisim software and analyzed using the one site binding (hyperbola) equation of Y=Bmax*X/(Kd+X) to generate Ha22-2(2,4)6.1vcMMAE saturation curves shown also in FIGS. 6-8 respectively. Bmax is the MFI value at maximal binding of Ha22-2(2,4)6.1vcMMAE to 191P4D12; Kd is the Ha22-2(2,4)6.1vcMMAE binding affinity which is the concentration of Ha22-2(2,4)6.1vcMMAE required to reach half-maximal binding.

[2] = molecular target: T2, 191P4D12 (human, wild type, on cells) (human, UniProt Q96NY8 32-510); assay: FACS saturation binding on PC3-human-191P4D12 cells
T2 construct: 510 amino acid ORF expressed on PC3, RAT/Rat1(E) cells and present in cancer cell lines and tumor specimens; also called human 191P4D12; wild-type 191P4D12
T2 sequence: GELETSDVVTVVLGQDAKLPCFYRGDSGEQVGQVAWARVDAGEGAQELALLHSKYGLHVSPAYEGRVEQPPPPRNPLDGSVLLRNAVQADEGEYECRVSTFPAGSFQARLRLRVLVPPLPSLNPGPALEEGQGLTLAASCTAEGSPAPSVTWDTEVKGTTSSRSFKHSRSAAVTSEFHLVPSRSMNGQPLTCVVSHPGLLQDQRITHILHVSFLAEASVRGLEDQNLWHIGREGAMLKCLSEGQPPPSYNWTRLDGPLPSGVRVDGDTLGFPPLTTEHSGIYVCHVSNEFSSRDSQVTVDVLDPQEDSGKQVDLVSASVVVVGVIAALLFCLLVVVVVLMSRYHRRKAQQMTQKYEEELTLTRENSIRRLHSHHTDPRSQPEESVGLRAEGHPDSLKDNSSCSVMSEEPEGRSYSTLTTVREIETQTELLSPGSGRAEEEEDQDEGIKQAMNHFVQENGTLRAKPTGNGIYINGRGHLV
Method: as §1

[3] = molecular target: T3, Cynomolgus 191P4D12 (on PC3 cells) (cynomolgus monkey, UniProt A0A2K5WES1 32-510); assay: FACS saturation binding on PC3-Cynomolgus-191P4D12 cells
T3 construct: also called PC3-Cynomolgus-191P4D12; Cyno ortholog
T3 sequence: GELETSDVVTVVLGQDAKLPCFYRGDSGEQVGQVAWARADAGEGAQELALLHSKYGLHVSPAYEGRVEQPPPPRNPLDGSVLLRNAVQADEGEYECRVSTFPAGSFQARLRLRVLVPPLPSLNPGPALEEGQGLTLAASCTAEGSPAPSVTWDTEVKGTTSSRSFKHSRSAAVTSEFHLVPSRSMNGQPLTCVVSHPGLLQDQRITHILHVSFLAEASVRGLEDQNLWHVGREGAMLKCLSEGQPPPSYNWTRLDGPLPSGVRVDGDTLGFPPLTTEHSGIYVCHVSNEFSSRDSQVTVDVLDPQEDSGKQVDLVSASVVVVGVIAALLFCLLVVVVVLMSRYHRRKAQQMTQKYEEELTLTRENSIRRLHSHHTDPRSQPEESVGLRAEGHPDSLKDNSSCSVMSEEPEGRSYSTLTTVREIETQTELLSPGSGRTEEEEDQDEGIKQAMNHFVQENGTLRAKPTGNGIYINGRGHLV
Method: as §1

[4] = molecular target: T4, purified recombinant 191P4D12 (ECD amino acids 1-348) (human, UniProt Q96NY8 32-348); assay: SPR (Biacore), ADC captured by anti-human Fc, 191P4D12 ECD as analyte
T4 construct: Range as printed
T4 sequence: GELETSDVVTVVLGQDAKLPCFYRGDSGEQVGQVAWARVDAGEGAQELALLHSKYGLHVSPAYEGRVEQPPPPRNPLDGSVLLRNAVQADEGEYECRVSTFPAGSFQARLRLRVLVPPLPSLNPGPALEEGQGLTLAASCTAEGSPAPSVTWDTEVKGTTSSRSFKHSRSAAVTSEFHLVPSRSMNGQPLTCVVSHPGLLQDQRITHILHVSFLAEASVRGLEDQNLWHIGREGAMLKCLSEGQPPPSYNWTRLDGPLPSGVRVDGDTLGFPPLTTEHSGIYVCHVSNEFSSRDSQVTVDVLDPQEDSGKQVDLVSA
Method: The affinity of Ha22-2(2,4)6.1 MAb and Ha22-2(2,4)6.1vcMMAE to purified recombinant 191P4D12 (ECD amino acids 1-348) was performed by Surface Plasmon Resonance (SPR) (BIAcore). Briefly, goat-anti-human Fcγ polyclonal Abs (Jackson Immuno Research Labs, Inc.) were covalently immobilized on the surface of a CM5 sensor chip (Biacore). Purified Ha22-2(2,4)6.1 MAb or Ha22-2(2,4)6.1vcMMAE were then captured on the surface of said chip. On average, approximately 300 RUs of test Ha22-2(2,4)6.1 MAb or Ha22-2(2,4)6.1vcMMAE was captured in every cycle. Subsequently, a series of five (5) to six (6) dilutions of recombinant 191P4D12 (ECD amino acids 1-348) ranging from 1 nM to 100 nM was injected over such surface to generate binding curves (sensograms) that were processed and globally fit to a 1:1 interaction model using BIAevaluation 3.2 and CLAMP software (Myszka and Morton, 1998) (FIG. 22). Table V summarizes association and dissociation rate constants as well as affinities of Ha22-2(2,4)6.1 MAb and Ha22-2(2,4)6.1 vcMMAE to recombinant 191P4D12 (ECD amino acids 1-348).

- Kd [1]: 1.6 nM
- Kd [2]: 0.69 nM
- Kd [3]: 0.34 nM
- Kd [4]: 11 nM
- koff [4]: 0.0052 s⁻¹
- kon [4]: 450000 M⁻¹ s⁻¹
B1: Ha22-2(2,4)6.1vcMMAE (antibody, human IgG1, kappa, V domains shown)
VH: EVQLVESGGGLVQPGGSLRLSCAASGFTFSSYNMNWVRQAPGKGLEWVSYISSSSSTIYYADSVKGRFTISRDNAKNSLSLQMNSLRDEDTAVYYCARAYYYGMDVWGQGTTVTVSS
VL: DIQMTQSPSSVSASVGDRVTITCRASQGISGWLAWYQQKPGKAPKFLIYAASTLQSGVPSRFSGSGSGTDFTLTISSLQPEDFATYYCQQANSFPPTFGGGTKVEIKR
modifications: vcMMAE (Val-Cit linker, MMAE) on cysteine thiols after partial TCEP reduction, positions not given; p about 3.8 drugs per antibody
notes: also called Ha22-2(2,4)6.1ADC
